The target of the test is T1, human VEGF (human, UniProt P15692 207-395, biotinylated).
T1 construct: also called hVEGF; hVEGF-biotin
T1 sequence: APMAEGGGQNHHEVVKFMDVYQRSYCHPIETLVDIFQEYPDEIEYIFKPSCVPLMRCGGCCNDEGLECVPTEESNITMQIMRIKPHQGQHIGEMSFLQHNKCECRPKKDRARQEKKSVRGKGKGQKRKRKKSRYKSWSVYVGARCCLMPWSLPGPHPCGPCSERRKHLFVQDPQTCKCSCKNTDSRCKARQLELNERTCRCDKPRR
The test is described as follows: SPR (Biacore), ligand hVEGF-biotin, 25 C.

B1: NVS1j (Fab)
heavy: EVQLVESGGGLVQPGGSLRLSCTASGFSLTDYYYMTWVRQAPGKGLEWVGFIDPDDDPYYATWAKGRFTISRDNSKNTLYLQMNSLRAEDTAVYYCAGGDHNSGWGLDIWGQGTLVTVSSASTKGPSVFPLAPSSKSTSGGTAALGCLVKDYFPEPVTVSWNSGALTSGVHTFPAVLQSSGLYSLSSVVTVPSSSLGTQTYICNVNHKPSNTKVDKRVEPKSCGS
light: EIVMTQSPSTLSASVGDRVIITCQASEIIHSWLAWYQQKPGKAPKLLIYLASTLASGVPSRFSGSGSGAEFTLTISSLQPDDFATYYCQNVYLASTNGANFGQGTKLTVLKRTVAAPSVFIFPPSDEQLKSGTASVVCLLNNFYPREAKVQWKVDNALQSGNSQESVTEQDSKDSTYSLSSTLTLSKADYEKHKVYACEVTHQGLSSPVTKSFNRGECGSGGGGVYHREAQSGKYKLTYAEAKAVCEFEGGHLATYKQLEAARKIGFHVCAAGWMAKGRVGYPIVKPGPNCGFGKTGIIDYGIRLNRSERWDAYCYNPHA
notes: Tag on the C-terminus of the light chain of NVS4; The heavy chain number is printed as '[9]215'
Turning to B1, binding was put at a Kd of 5.64 pM; the koff – broadly, the first-order rate constant of dissociation – was determined as 0.000172 s⁻¹; the kon (usually the second-order rate constant of association) is 3.05e+07 M⁻¹ s⁻¹.

(Values after patent US20160297854A1 (Novartis, published 2016).)
